Results taken from the supplement of paper PMC10266784.

B1: library; numbered along this chain (parent)
chain: MAAAAAAAAEQQSSNGPVKKSMREKAVERRSVNKEHNSNFKAGYIPIDEDRLHKTGLRGRKGNLAICVIILLFILAVINLIITLVIWAVIRIGPNGCDSMEFHESGLLRFKQVSDMGVIHPLYKSTVGGRRNENLVITGNNQPIVFQQGTTKLSVENNKTSITSDIGMQFFDPRTQNILFSTDYETHEFHLPSGVKSLNVQKASTERITSNATSDLNIKVDGRAIVRGNEGVFIMGKTIEFHMGGNMELKAENSIILNGSVMVSTTRLPSSSSGDQLGSGDWVRYKLCMCADGTLFKVQVTSQNMGCQISDNPCGNTH

Variants of: B1
Experiment: SGCB cell-surface expression functional score (HA stain, bin4 vs bin1, normalised to synonymous) (log10 ratio); higher = more cell-surface SGCB (functional)
Method in brief: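 HEK293 cells stably expressing alpha-, gamma- and delta-sarcoglycan received codon-saturation libraries of HA-tagged, YFP-fused human beta-sarcoglycan by lentiviral transduction at MOI <0.1, performed in duplicate. Cells positive for YFP were sorted after 72 hours and cultured for 5–7 days, then stained on ice with Alexa Fluor 647 anti-HA and fixed. Fixed cells were sorted into four 5% intensity bins and amplicon-sequenced, and the log ratio of highest-bin to lowest-bin variant frequency, as a median over codons and transductions, gives the functional score. Per section, synonymous variants were scaled to mean 0, SD 0.5.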

SGCB cell-surface expression functional score (log10), by site and new letter:
Q303: R -0.45, P 0.04, G 0.2, I 0.25, K -0.33, L -0.16, Y -0.3, M -0.16, S -0.43, D 0.36, E 0.08, T -0.46, W -0.98, F 0.11, A -0.65, H 0.07, N -0.9, C 0.15, V 0.37
F296: S -0.26, A -0.24, V -0.33, D -0.42, P -0.5, R -0.46, N -0.63, T -0.42, I 0.21, Y 0.25, W 0.16, E -1.06, L -0.05, K -1.28, H -0.39, M -0.13, C -0.18, G -0.62, Q -0.65
N304: L -0.14, A -0.43, E 0.56, H 0.26, D -0.34, F -0.09, P -0.2, R -0.41, Q -0.11, C -0.06, M -1.75, K 0.07, G 0.09, I -0.42
T301: A -0.27, L -0.56, Y 0.14, E 0.06, W 0.96, C 0.31, M 0.86, V -0.21, I -0.29, H -0.15, K 0.28, F -0.72, P -0.57, N -0.45, G 0.13, R -0.14, D 0.33, S -0.16, Q 0.16
Q299: F -0.05, I 0.37, D 0.16, L -0.23, N 0.04, A 0.08, G -0.02, M -0.25, R 0, E 0.61, K 0.21, V 0.01, S 0.08, P -0.01, T 0.05, Y -0.66, W 0.13, H -0.17, C -1.36
V298: E 0.17, N -0.06, L -0.21, C 0.01, M 0.21, G -0.37, D -0.58, S -0.15, K 0.19, H -0.85, Y -1.36, Q -1.06, F -1.04, R -0.21, W 0.29, P -0.53, A -0.24, T -0.74, I 0.1
K297: H -0.02, R 0.25, Q -0.3, A -0.41, L -0.43, I -0.54, E 0.15, G -0.21, C -0.07, N 0.46, P 0.02, Y -0.13, T -0.16, F -0.47, W -1.48, V -0.02, D 0.03, M 0.17, S -0.17
V300: C -0.27, M -1.6, E -0.69, T 0.05, S -0.35, I -0.28, Y -0.33, K -2.02, N -0.77, W -0.26, P -0.35, D -0.2, R -0.27, H -0.8, G -0.65, L -1.14, A -0.02, Q -1.07, F -0.2
L295: Y -0.02
S302: E -0.24, T -1.04, K 0.45, I 0.38, N -1.18, L -0.93, V 0.35, Q -1.84, R 0.1, H 0.54, G -0.36, W -0.56, C -0.53, P -0.74, Y -0.06, F 0.61, M -1.5, A -0.01, D -1.03
